# Assay results published in patent US20230348564A1, “ANTI-CANCER PROTEINS” (UNICHEM LABORATORIES LTD, priority 2020, published 2023).
# B1: SEQ ID NO. 2: recombinant lectin; variant of the S. rolfsii lectin amino acid sequence (reported as Rec-2 in WO 2010/095143) (protein)
# chain: TYKITVRVYQTNPDAFFHPVEKTVWKYANGGTWTITDDQHVLTMGGSGTSGTLRFHADNGESFTATFGVHNYKRWCDIVTNLAADETGMVINQQYYSQKNREEARERQLSNYQVKNAKGRNFQIVYTEAEGNDLHANLIIG
# modifications: In vitro synthesis
# Legend:
# [1] = tested on: EA.hy926 (Human endothelial cells); experiment: endothelial cell proliferation by MTT assay; type: cell-based; details: for % inhibition of FBS stimulated cell growth / Mean (MTT absorbance): 72 h
# Procedure: The cell line used for the study was EA.hy926 (Human endothelial cells) which was procured from National Centre for Cell Science, Pune (India). The cell line was maintained in DMEM+10% FBS (heat inactivated) at 37° C. with 5% CO2, and 95% humidity. […] Untreated cells with complete medium (10% FBS) served as complete medium control, cells with sera free medium served as SFM control and the cells treated with Paclitaxel served as positive control.
# The percentage cytotoxicity corresponding to each treatment was calculated.
# MDA-MB-231 = experiment: JC-1 assay, mitochondrial membrane depolarization; type: cell-based, Human; details: 16h
# Procedure: To evaluate the in vitro apoptotic effect of recombinant lectin having the amino acid sequence of SEQ ID NO.2 in MDA-MB-231 (breast cancer) and PANG-1 (pancreatic cancer) cell line by JC-1 assay, an increase in mitochondrial membrane depolarization was used as a marker of apoptosis. […] 2 using JC-1 dye based method. […] The cell lines were grown in Dulbecco's Modified Eagle Medium (DMEM)+10% heat inactivated FBS at 37° C. (95% humidity and 5% CO2). […] Recombinant lectin having the amino acid sequence of SEQ ID NO. 2 was diluted in serum free medium. Doxorubicin was used as positive control and stock solution was prepared in dimethyl sulfoxide (DMSO). […] The cells were then incubated overnight under growth conditions to allow the cell recovery and exponential growth. Cells were treated with the recombinant lectin of SEQ ID NO. […] Following respective treatments the cells in the above plate were incubated for 16h in CO2 incubator at 37° C., 5% CO2 and 95% humidity.
# After 16h of incubation, the supernatants were discarded and 100 μL of JC1-dye solution (prepared by diluting 1 mM DMSO stock in to 10 μM in 1×PBS) was added to each well. The cells were then incubated with the dye in CO2 incubator at 37° C. for 15 min. After 15 min of incubation, the supernatant was removed and the cells were washed twice with 1×PBS and then 100 μL of 1×PBS was added to each well. Red fluorescence (excitation 550 nm, emission 600 nm) and green fluorescence (excitation 485 nm, emission 535 nm) were measured using Biotek Synergy FIT plate reader. The mitochondrial membrane potential […] was calculated as the ratio of intensity of red fluorescence to intensity of green fluorescence described as follows:
# ΔΨM=Intensity of red fluorescence/Intensity of green fluorescence
# The percentage decrease of Red fluorescence/Green fluorescence corresponding to each treatment was calculated using the following formula:
# Where X=Δψm corresponding to treated cells R=ΔΨM corresponding to control wells.
# Neuroblastoma (SH-SY5Y) = experiment: cytotoxicity in Brain Tumor Cell lines by MTT assay; type: cell-based, Human; details: 72 h
# Procedure: (§1) The SEQ ID NO. […] Untreated cells were used as control. […] Cells were incubated for 3 h at 37° C.
# Glioblastoma (LN-18) = experiment: as above; type: cell-based, Human; details: 72 h
# Procedure: as §1
# [2] = tested on: EA.hy926 (Human endothelial cells); experiment: Cell migration by scratch assay in endothelial cells; type: cell-based
# Procedure: EA.hy296 cells were counted using hemocytometer and plated in 6-well plates at the density of 0.5×10^6 cells/well. The cells were incubated overnight under growth conditions as described above so as to allow cell recovery and exponential growth. Following overnight incubation, a small linear scratch (representative wound) was created in the confluent monolayer (middle of the well) by gently scraping with sterile 200 μl micropipette tip. Photomicrographs of the scratch were taken at 0 h (Initial time point). Cells were rinsed with serum free DMEM and grouped for treatment in two different serum conditions:
# • Baseline control: Cells+DMEM • Positive/Validation control: Baseline control+Positive Control. Test: Baseline control+Test Item
# • Baseline control: Cells+DMEM+1% FBS • Positive/Validation control: Baseline control+Positive Control. • Test: Baseline control+Test item
# Photomicrographs of the scratch were taken at 24 h-72 h time points. The photomicrographs obtained in the above step were analyzed for quantitative assessment of area of wound closure using ImageJ tool software. Percentage migration with respect to untreated cells at different time points was calculated.
molecule,measurement,setting,value
B1,% inhibition of FBS stimulated cell growth,[1]; 2.5 μg/mL,−9.83%
same,Mean (MTT absorbance),[1]; 2.5 μg/mL,1.761
same,% inhibition of FBS stimulated cell growth,[1]; 5 μg/mL,−12.16%
same,Mean (MTT absorbance),[1]; 5 μg/mL,1.799
same,% inhibition of FBS stimulated cell growth,[1]; 10 μg/mL,−16.59%
same,Mean (MTT absorbance),[1]; 10 μg/mL,1.870
same,inhibition of endothelial cell proliferation as compared to control,[1]; 20 μg/mL to 100 μg/mL,15.51% to 58.53%
same,% inhibition of FBS stimulated cell growth,[1]; 20 μg/mL,15.51%
same,Mean (MTT absorbance),[1]; 20 μg/mL,1.355
same,% inhibition of FBS stimulated cell growth,[1]; 40 μg/mL,29.22%
same,Mean (MTT absorbance),[1]; 40 μg/mL,1.135
same,% inhibition of FBS stimulated cell growth,[1]; 80 μg/mL,56.50%
same,Mean (MTT absorbance),[1]; 80 μg/mL,0.698
same,% inhibition of FBS stimulated cell growth,[1]; 100 μg/mL,58.53%
same,Mean (MTT absorbance),[1]; 100 μg/mL,0.665
same,Average Green fluorescence,MDA-MB-231; 2.5 μg/mL,703.0
same,Average Red fluorescence,MDA-MB-231; 2.5 μg/mL,769.7
same,Percentage decrease in MMP (%),MDA-MB-231; 2.5 μg/mL,54.1%
same,Red/Green ratio,MDA-MB-231; 2.5 μg/mL,1.09
same,depolarization of mitochondrial membrane,MDA-MB-231; 2.5 μg/mL-80 μg/mL,19.8%-54.1%
same,Average Green fluorescence,MDA-MB-231; 5 μg/mL,560.0
same,Average Red fluorescence,MDA-MB-231; 5 μg/mL,709.3
same,Percentage decrease in MMP (%),MDA-MB-231; 5 μg/mL,46.9%
same,Red/Green ratio,MDA-MB-231; 5 μg/mL,1.27
same,Average Green fluorescence,MDA-MB-231; 10 μg/mL,596.3
same,Average Red fluorescence,MDA-MB-231; 10 μg/mL,1098.3
same,Percentage decrease in MMP (%),MDA-MB-231; 10 μg/mL,22.8%
same,Red/Green ratio,MDA-MB-231; 10 μg/mL,1.84
same,Average Green fluorescence,MDA-MB-231; 20 μg/mL,497.3
same,Average Red fluorescence,MDA-MB-231; 20 μg/mL,929.3
same,Percentage decrease in MMP (%),MDA-MB-231; 20 μg/mL,21.7%
same,Red/Green ratio,MDA-MB-231; 20 μg/mL,1.87
same,Average Green fluorescence,MDA-MB-231; 40 μg/mL,535.7
same,Average Red fluorescence,MDA-MB-231; 40 μg/mL,1009.0
same,Percentage decrease in MMP (%),MDA-MB-231; 40 μg/mL,21.0%
same,Red/Green ratio,MDA-MB-231; 40 μg/mL,1.88
same,Average Green fluorescence,MDA-MB-231; 80 μg/mL,500.3
same,Average Red fluorescence,MDA-MB-231; 80 μg/mL,957.3
same,Percentage decrease in MMP (%),MDA-MB-231; 80 μg/mL,19.8%
same,Red/Green ratio,MDA-MB-231; 80 μg/mL,1.91
same,% of cytotoxicity,Neuroblastoma (SH-SY5Y); 2.5 μg/mL-100 μg/mL,10.3%-46.9%
same,IC50 Value,Neuroblastoma (SH-SY5Y),>100 µg/mL
same,% of cytotoxicity,Glioblastoma (LN-18); 2.5 μg/mL-100 μg/mL,39.6%-75.3%
same,IC50 Value,Glioblastoma (LN-18),4.35 µg/mL
same,inhibition of endothelial cells migration as compared to control (DMEM),"[2]; 20 μg/mL to 100 μg/mL, after 72 hrs",71.5% to 82.4%
same,Inhibition of migration with respect to untreated,"[2]; 20 μg/mL, 24 h, 1% FBS",0.8%
same,Inhibition of migration with respect to untreated,"[2]; 20 μg/mL, 24 h, SFM",74%
same,Inhibition of migration with respect to untreated,"[2]; 20 μg/mL, 48 h, 1% FBS",5.4%
same,Inhibition of migration with respect to untreated,"[2]; 20 μg/mL, 48 h, SFM",81.1%
same,Inhibition of migration with respect to untreated,"[2]; 20 μg/mL, 72 h, SFM",82.4%
same,Inhibition of migration with respect to untreated,"[2]; 40 μg/mL, 24 h, 1% FBS",28.5%
same,Inhibition of migration with respect to untreated,"[2]; 40 μg/mL, 24 h, SFM",80.5%
same,Inhibition of migration with respect to untreated,"[2]; 40 μg/mL, 48 h, 1% FBS",35.3%
same,Inhibition of migration with respect to untreated,"[2]; 40 μg/mL, 48 h, SFM",82.3%
same,Inhibition of migration with respect to untreated,"[2]; 40 μg/mL, 72 h, SFM",82.2%
same,Inhibition of migration with respect to untreated,"[2]; 50 μg/mL, 24 h, 1% FBS",30.0%
same,Inhibition of migration with respect to untreated,"[2]; 50 μg/mL, 24 h, SFM",79.9%
same,Inhibition of migration with respect to untreated,"[2]; 50 μg/mL, 48 h, 1% FBS",42.9%
same,Inhibition of migration with respect to untreated,"[2]; 50 μg/mL, 48 h, SFM",81%
same,Inhibition of migration with respect to untreated,"[2]; 50 μg/mL, 72 h, SFM",79.5%
same,Inhibition of migration with respect to untreated,"[2]; 60 μg/mL, 24 h, 1% FBS",50.1%
same,Inhibition of migration with respect to untreated,"[2]; 60 μg/mL, 24 h, SFM",82.0%
same,Inhibition of migration with respect to untreated,"[2]; 60 μg/mL, 48 h, 1% FBS",63.5%
same,Inhibition of migration with respect to untreated,"[2]; 60 μg/mL, 48 h, SFM",77.3%
same,Inhibition of migration with respect to untreated,"[2]; 60 μg/mL, 72 h, SFM",76.0%
same,Inhibition of migration with respect to untreated,"[2]; 80 μg/mL, 24 h, 1% FBS",65.6%
same,Inhibition of migration with respect to untreated,"[2]; 80 μg/mL, 24 h, SFM",80.5%
same,Inhibition of migration with respect to untreated,"[2]; 80 μg/mL, 48 h, 1% FBS",77.8%
same,Inhibition of migration with respect to untreated,"[2]; 80 μg/mL, 48 h, SFM",78.2%
same,Inhibition of migration with respect to untreated,"[2]; 80 μg/mL, 72 h, SFM",74.5%
same,Inhibition of migration with respect to untreated,"[2]; 100 μg/mL, 24 h, 1% FBS",73.8%
same,Inhibition of migration with respect to untreated,"[2]; 100 μg/mL, 24 h, SFM",55.7%
same,Inhibition of migration with respect to untreated,"[2]; 100 μg/mL, 48 h, 1% FBS",73.1%
same,Inhibition of migration with respect to untreated,"[2]; 100 μg/mL, 48 h, SFM",73.2%
same,Inhibition of migration with respect to untreated,"[2]; 100 μg/mL, 72 h, SFM",71.5%
same,% Cytotoxicity,MIAPaCa-2,47.5%
